Source: article PMC5504672

Tests used:
[1] = target: T1, IolQ-His6 (DegA) (Bacillus subtilis 168) (UniProt P37947); test: EMSA; details: 10 mM Tris-HCl pH 8.0, 1 mM DTT, 10 mM KCl, 5 mM MgCl2, 10% glycerol, 5 ug/ml poly d(I-C), 50 ug/ml BSA, 37 C, 30 min; DNA 0.155 pmol in 0.02 ml (EMSA) or …
T1 sequence: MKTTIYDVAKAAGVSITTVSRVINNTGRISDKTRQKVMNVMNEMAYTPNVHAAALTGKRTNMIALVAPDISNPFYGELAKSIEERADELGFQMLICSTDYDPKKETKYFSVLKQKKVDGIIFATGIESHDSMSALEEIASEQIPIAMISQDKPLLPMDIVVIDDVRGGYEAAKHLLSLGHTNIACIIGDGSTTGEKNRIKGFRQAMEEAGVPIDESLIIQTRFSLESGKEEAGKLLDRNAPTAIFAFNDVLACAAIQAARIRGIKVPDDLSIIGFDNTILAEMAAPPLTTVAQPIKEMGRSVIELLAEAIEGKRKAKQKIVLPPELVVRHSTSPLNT

[2] = target: T1, IolQ-His6 (DegA) (Bacillus subtilis 168); test: DNase I footprinting; details: 10 mM Tris-HCl pH 8.0, 1 mM DTT, 10 mM KCl, 5 mM MgCl2, 10% glycerol, 5 ug/ml poly d(I-C), 50 ug/ml BSA, 37 C, 30 min; DNA 0.155 pmol in 0.02 ml (EMSA) or …

Row | Sequence | binding [1] | binding [2]
1 | ATGAGCGGGTTTTTTCATTATGACAGTTGAAGCCAAAAAAACATATTGCGTGTAAACCAAAGGCGGTGTAAAATATAACCATCTTTTGAGAAAGCGCTTGCGCAAAATGGCAGAGCGGATAGAACCGCTGTTTTTTTAGCTGTTAAGAGAAAACGCTTTCTCAAAGCGAGCCCGAAATGAGATAAAGGAGAGGATGGGAC (double strand) [iolX promoter 200 bp] | binds | –
2 | GAGCTTGTAGTCAGACATTCTACATCACCGCTCAACACATGAGCCCGCTAATGAGCGGGTTTTTTCATTATGACAGTTGAAGCCAAAAAAACATATTGCGTGTAAACCAAAGGCGGTGTAAAATATAACCATCTTTTGAGAAAGCGCTTGCGCAAAATGGCAGAGCGGATAGAACCGCTGTTTTTTTAGCTGTTAAGAGAAAACGCTTTCTCAAAGCGAGCCCGAAATGAGATAAAGGAGAGGATGGGACGTGGAACATCAAGTAAGATGTGCAGTATTGGGATTAGGAAGGCTCGGTTA (double strand) [iolX promoter 300 bp footprint probe, high affinity region] | – | binds
